Data on 4 proteins can be found in article doi:10.1101/2021.08.28.458007v1.

Substrate in the series: O=C1O[C@H]([C@@H](O)CO)C(=O)C1=O
Briefly: purified protein.

[1] abbreviates: co-substrate GSH (2 mM), 50 mM phosphate pH 6.8, 0.2 mM EDTA.
Setting [2] is: co-substrate GSH, 50 mM phosphate pH 6.8, 0.2 mM EDTA.

B1: HsGSTO1-1 (Homo sapiens) (protein)
chain: SGESARSLGKGSAPPGPVPEGSIRIYSMRFCPFAERTRLVLKAKGIRHEVININLKNKPEWFFKKNPFGLVPVLENSQGQLIYESAITCEYLDEAYPGKKLLPDDPYEKACQKMILELFSKVPSLVGSFIRSQNKEDYAGLKEEFRKEFTKLEEVLTNKKTTFFGGNSISMIDYLIWPWFERLEAMKLNECVDHTPKLKLWMAAMKEDPTVSALLTSEKDWQGFLELYLQNSPEACDYGL
As to B1, for the setting “co-substrate GSH, marked 'This study' (footnote a)”, the Km is 138.2 (±27.07) μM.

B2: PgDHAR (Cenchrus americanus) (protein)
chain: MAVEVCVKAAVGAPDILGDCPFSQRVLLTLEEKKITYEMKLVDLSNKPEWFLKISPEGKVPVFNSGDGKWIADSDVITQVIEEKFPTPSLVTPPEYASVGSKIFPSFVKFLKSKDASDGSEKALLDELQALDEHLKAHGPYISGENVSAADLSLGPKLFHLQVALEHFKGWKIPENLTSVHAYTKALFSRESFVKTKPANQYLIAGWAPKVNA
As usually defined, the kcat is the maximal rate divided by the concentration of active sites. Consider B2, for which, under setting [1], the Km was 159.2 (±11.4) μM and the kcat was found to be 2271.663 s⁻¹.

B3: PgDHAR (Cenchrus americanus; D19A) (protein)
chain: MAVEVCVKAAVGAPDILGACPFSQRVLLTLEEKKITYEMKLVDLSNKPEWFLKISPEGKVPVFNSGDGKWIADSDVITQVIEEKFPTPSLVTPPEYASVGSKIFPSFVKFLKSKDASDGSEKALLDELQALDEHLKAHGPYISGENVSAADLSLGPKLFHLQVALEHFKGWKIPENLTSVHAYTKALFSRESFVKTKPANQYLIAGWAPKVNA
B3: under setting [2], the Km was 245.7 (±75.7) μM and the kcat turned out to be 20.35 s⁻¹.

B4: PgDHAR (Cenchrus americanus; K8A) (protein)
chain: MAVEVCVAAAVGAPDILGDCPFSQRVLLTLEEKKITYEMKLVDLSNKPEWFLKISPEGKVPVFNSGDGKWIADSDVITQVIEEKFPTPSLVTPPEYASVGSKIFPSFVKFLKSKDASDGSEKALLDELQALDEHLKAHGPYISGENVSAADLSLGPKLFHLQVALEHFKGWKIPENLTSVHAYTKALFSRESFVKTKPANQYLIAGWAPKVNA
B4: under setting [2], the Km was 1842 (±414.3) μM and the kcat is 89.34 s⁻¹.
